Results reported in article PMC7114414 (Virus Research, 2014).

Target: T1, HR2P-FITC (HR2P peptide labeled with FITC) (MERS-CoV, UniProt K9N5Q8 1251-1286)
T1 peptide: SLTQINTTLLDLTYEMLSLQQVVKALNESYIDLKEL
Test: native gel or EMSA

B1: HR1P peptide (residues 998-1039 of the MERS-CoV S protein, HR1 domain of the S2 subunit) (peptide)
peptide: ANKFNQALGAMQTGFTTTNEAFHKVQDAVNNNAQALSKLASE
B1: binds.
